From patent US20200339678A1 (RIGEL PHARMACEUTICALS, published 2020) come the findings set out here.

Test [1] deals with T1, human TIGIT fused to a beta galactosidase portion, on YTS cells (YTS_hTIGIT/hGrb2) (human, UniProt Q495A1 22-244).
T1 sequence (looked up): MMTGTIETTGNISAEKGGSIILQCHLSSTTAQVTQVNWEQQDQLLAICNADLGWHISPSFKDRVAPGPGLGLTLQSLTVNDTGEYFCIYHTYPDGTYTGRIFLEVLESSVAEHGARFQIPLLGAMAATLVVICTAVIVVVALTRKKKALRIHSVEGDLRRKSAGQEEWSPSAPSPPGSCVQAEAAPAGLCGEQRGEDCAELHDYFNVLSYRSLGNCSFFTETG
Briefly: cell-based or functional assay.

The target in the next test is T2, mouse TIGIT-Fc (mouse, UniProt P86176 29-148).
T2 construct: extracellular domain; also called TIGIT-ECD; not shown: Fc
T2 sequence (looked up): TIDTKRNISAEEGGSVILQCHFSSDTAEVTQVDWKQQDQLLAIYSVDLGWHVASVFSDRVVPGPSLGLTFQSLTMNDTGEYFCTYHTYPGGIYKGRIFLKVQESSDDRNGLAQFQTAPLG
In words: comp. ELISA vs PVR. The protocol:
(§1) Antibodies were serially diluted in a 10-point curve starting at 1 μM in 3-fold steps. […] Units are in microM.
(In general: An ELISA detects its analyte on a solid surface through an enzyme-linked reagent.)

A further test has as its target T3, biotinylated human TIGIT (human, UniProt Q495A1 22-141, biotinylated (EZ-Link NHS-PEG4-biotin kit)).
T3 construct: extracellular domain; also called TIGIT-ECD
T3 sequence (looked up): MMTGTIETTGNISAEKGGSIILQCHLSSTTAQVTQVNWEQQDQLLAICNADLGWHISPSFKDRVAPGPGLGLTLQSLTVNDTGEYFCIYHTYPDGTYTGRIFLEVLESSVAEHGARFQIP
Briefly: comp. ELISA vs PVR. As to the method:
as §1

In test [2] the target is T4, His-tagged recombinant Mouse TIGIT (mouse, UniProt P86176 29-148, limits assumed).
T4 construct: coated antigen of the direct ELISA; not shown: His tag
T4 sequence (looked up): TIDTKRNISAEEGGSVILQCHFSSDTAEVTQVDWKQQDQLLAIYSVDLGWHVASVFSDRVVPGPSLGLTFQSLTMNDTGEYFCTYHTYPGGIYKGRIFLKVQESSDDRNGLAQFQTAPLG
Briefly: ELISA. The protocol: (§2) Binding affinities for antigen binding to anti-TIGIT monoclonal antibodies were determined by ELISA. […] Antibodies to be tested were diluted to 1 μM in PBS buffer containing 1% BSA and diluted 3-fold in a 10-point curve. […] Detection of the secondary antibody was determined using streptavidin-HRP and TMB reagent. All assays were performed at room temperature. Curve-fitting software was used to determine the EC₅₀ for each antibody.

Test [3] deals with T5, His-tagged recombinant Human TIGIT (human, UniProt Q495A1 22-141).
T5 construct: coated antigen of the direct ELISA; not shown: His tag
T5 sequence (looked up): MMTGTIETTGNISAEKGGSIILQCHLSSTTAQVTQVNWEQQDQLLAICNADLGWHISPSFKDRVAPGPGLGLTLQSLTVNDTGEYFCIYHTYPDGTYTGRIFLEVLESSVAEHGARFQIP
Briefly: ELISA. The protocol: as §2

A value given as a limit tells only on which side of the number the result lay.

B1: Ab28i2 (antibody, V domains shown)
VH: EVQLLESGGGLVQPGGSLRLSCAASGFTFSSYSMHWVRQAPGKGLEWVANINSNGGNTGYADSVKGRFTISRDNSKNTLYLQMNSLRAEDTAVYYCARVPYDVWMDYWGQGTLVTVSS
VL: not shown
notes: mIgG2a of Ab28
Turning to B1, the “YTS_hTIGI/hGrbs_EFC_Antagonism, 221_hPVR/ICAM” value in test [1] is 0.26 µM. For the same molecule, the values for the IC50 with mouse TIGIT-Fc and with biotinylated human TIGIT were 1.5 nM and 2 nM, respectively. Further, the EC50 was 2.5 nM in test [2] and 0.6 nM in test [3].

B2: Ab40i3 (antibody, V domains shown)
VH: EVQLLESGGGLVQPGGSLRLSCAASGFTFSSYSMNWVRQAPGKGLEWVAGIKYSSGNKYYADSVKGRFTISRDNSKNTLYLQMNSLRAEDTAVYYCARGPYDVWMDYWGQGTLVTVSS
VL: not shown
notes: mIgG2a of Ab40, G33S
Consider B2, for which the “YTS_hTIGI/hGrbs_EFC_Agonism, 221_WT” value in test [1] turned out to be 0.08 µM. Also, in test [1], the “YTS_hTIGI/hGrbs_EFC_Antagonism, 221_hPVR/ICAM” value was 0.0098 µM. Besides, the IC50 is greater than 1000 nM with mouse TIGIT-Fc and 3.7 nM in the test with biotinylated human TIGIT. Further, the results for the EC50 in test [2] and in test [3] were 41 nM and 0.2 nM, respectively.

B3: Ab32i1 (antibody, V domains shown)
VH: EVQLLESGGGLVQPGGSLRLSCAASGFTFSSYSMHWVRQAPGKGLEWVANINSNGGNTGYADSVKGRFTISRDNSKNTLYLQMNSLRAEDTAVYYCARVPYDVWMDYWGQGTLVTVSS
VL: not shown
notes: hIgG1 of Ab32
Take B3: the “YTS_hTIGI/hGrbs_EFC_Antagonism, 221_hPVR/ICAM” value in test [1] is 0.069 µM. The IC50 stood at 1.4 nM with mouse TIGIT-Fc and 1.1 nM with biotinylated human TIGIT. The results for the EC50 in test [2] and in test [3] were 2.5 nM and 0.4 nM, respectively.

B4: Ab48i1 (antibody, V domains shown)
VH: EVQLLESGGGLVQPGGSLRLSCAASGFTFSSYSMNWVRQAPGKGLEWVANIKSSGSSTSYADSVKGRFTISRDNSKNTLYLQMNSLRAEDTAVYYCARGPYDVWMDYWGQGTLVTVSS
VL: not shown
notes: hIgG1 of Ab48
For the molecule B4, the “YTS_hTIGI/hGrbs_EFC_Antagonism, 221_hPVR/ICAM” value in test [1] was 0.0286 µM. For the same molecule, the values for the IC50 in the test with mouse TIGIT-Fc and with biotinylated human TIGIT were 1.5 nM and 1.9 nM, respectively. For the same molecule, the EC50 in test [2] and in test [3] was 0.2 nM throughout.

B5: Ab40i7 (antibody, V domains shown)
VH: EVQLLESGGGLVQPGGSLRLSCAASGFTFSSYGMNWVRQAPGKGLEWVAGIKSSSGNKYYADSVKGRFTISRDNSKNTLYLQMNSLRAEDTAVYYCARGPYDVWMDYWGQGTLVTVSS
VL: not shown
notes: mIgG2a of Ab40, Y52aS
Regarding B5, the “YTS_hTIGI/hGrbs_EFC_Agonism, 221_WT” value in test [1] is 0.0156 µM. The “YTS_hTIGI/hGrbs_EFC_Antagonism, 221_hPVR/ICAM” value in test [1] worked out at 0.0163 µM. Further, the figures for the IC50 with mouse TIGIT-Fc and with biotinylated human TIGIT were 121 nM and 3 nM, respectively. Besides, the EC50 in test [2] was found to be 7.6 nM; in test [3], 0.2 nM.

B6: Ab53 (Fab, V domains shown)
VH: EVQLLESGGGLVQPGGSLRLSCAASGFTFSSYSMHWVRQAPGKGLEWVASIKSSSSNKYYADSVKGRFTISRDNSKNTLYLQMNSLRAEDTAVYYCARGPYDVWLDYWGQGTLVTVSS
VL: not shown
As to B6, the “YTS_hTIGI/hGrbs_EFC_Antagonism, 221_hPVR/ICAM” value in test [1] is 0.0303 µM. For the same molecule, the IC50 amounted to 35.3 nM in the test with mouse TIGIT-Fc and 9 nM with biotinylated human TIGIT. Also, the EC50 in test [2] stood at 7.6 nM; in test [3] it was 4.3 nM.

B7: Ab40i6 (antibody, V domains shown)
VH: EVQLLESGGGLVQPGGSLRLSCAASGFTFSSYGMNWVRQAPGKGLEWVAGIKSSSGNKYYADSVKGRFTISRDNSKNTLYLQMNSLRAEDTAVYYCARGPYDVWMDYWGQGTLVTVSS
VL: not shown
notes: hIgG1 of Ab40, Y52aS
In the case of B7, the “YTS_hTIGI/hGrbs_EFC_Agonism, 221_WT” value in test [1] came out at 0.0014 µM. In addition, in test [1], the “YTS_hTIGI/hGrbs_EFC_Antagonism, 221_hPVR/ICAM” value stood at 0.276 µM. Besides, the values for the IC50 with mouse TIGIT-Fc and in the test with biotinylated human TIGIT were 78.8 nM and 2.7 nM, respectively. The half-maximal effective concentration (EC50) is 37 nM in test [2] and 0.3 nM in test [3].

B8: Ab48i2 (antibody, V domains shown)
VH: EVQLLESGGGLVQPGGSLRLSCAASGFTFSSYSMNWVRQAPGKGLEWVANIKSSGSSTSYADSVKGRFTISRDNSKNTLYLQMNSLRAEDTAVYYCARGPYDVWMDYWGQGTLVTVSS
VL: not shown
notes: mIgG2a of Ab48
B8: the “YTS_hTIGI/hGrbs_EFC_Antagonism, 221_hPVR/ICAM” value in test [1] was 0.0068 µM. Also, the IC50 with mouse TIGIT-Fc amounted to 1.9 nM; with biotinylated human TIGIT it was 1.6 nM. The EC50 in test [2] and in test [3] was 0.2 nM in each case.

In general, IC50 refers to the concentration that gives 50% inhibition. A higher IC50 goes with weaker potency in that assay. Broadly, the EC50 is the concentration giving half of the maximal effect.
